According to PMC6995525, “Structure of the PUB Domain from Ubiquitin Regulatory X Domain Protein 1 (UBXD1) and Its Interaction with the p97 AAA+ ATPase” (Biomolecules, 2019):
No end group written: not given here.

B2: UBXD1-PUB (150–264) (domain or fragment, UniProt Q9BZV1 150-264, looked up)
chain: STDPVAASIMKIYTFNKDQDRVKLGVDTIAKYLDNIHLHPEEEKYRKIKLQNKVFQERINCLEGTHEFFEAIGFQKVLLPAQDQEDPEEFYVLSETTLAQPQSLERHKEQLLAAE
notes: UBXD1 (ubiquitin regulatory X domain protein 1), PUB domain construct, residues 150-264; Cloned into pET28a (NdeI/HindIII); a few vector residues probably remain after thrombin cleavage (surmised); Theoretical MW 13.80 kDa; 15N- or 13C,15N-labelled for NMR; also called UBXD1-PUB wt; wild type (wt); source: E. coli Rosetta2, purified (Ni-NTA, thrombin cleavage of the tag, SEC); not shown: His6, …

Key:
Settings in all cases: both partners purified
UBXD1-PUB (150–264) [1] = molecular target: B2; assay: ITC; UBXD1-PUB (100 µM) titrated with 1 mM p97-C10 peptide; 50 mM NaKPi pH 6.5, 25 °C; single-site model; triplicate, parameters averaged
full-length p97 = molecular target: T1, full-length p97 (UniProt P55072 1-806); assay: fluorescence polarisation; fluorescence anisotropy of UBXD1-PUB wt with full length p97; which partner was labeled and titrated is not told
T1 construct: AAA+ ATPase p97 / valosin-containing protein (VCP) / Cdc48, full length; Cloning, tags and purification of p97-fl are not described; the methods say only that 'all proteins were expressed in Escherichia coli Rosetta2' and purified by Ni-NTA and SEC after thrombin cleavage; also called p97-fl; VCP
T1 sequence (P55072 whole entry): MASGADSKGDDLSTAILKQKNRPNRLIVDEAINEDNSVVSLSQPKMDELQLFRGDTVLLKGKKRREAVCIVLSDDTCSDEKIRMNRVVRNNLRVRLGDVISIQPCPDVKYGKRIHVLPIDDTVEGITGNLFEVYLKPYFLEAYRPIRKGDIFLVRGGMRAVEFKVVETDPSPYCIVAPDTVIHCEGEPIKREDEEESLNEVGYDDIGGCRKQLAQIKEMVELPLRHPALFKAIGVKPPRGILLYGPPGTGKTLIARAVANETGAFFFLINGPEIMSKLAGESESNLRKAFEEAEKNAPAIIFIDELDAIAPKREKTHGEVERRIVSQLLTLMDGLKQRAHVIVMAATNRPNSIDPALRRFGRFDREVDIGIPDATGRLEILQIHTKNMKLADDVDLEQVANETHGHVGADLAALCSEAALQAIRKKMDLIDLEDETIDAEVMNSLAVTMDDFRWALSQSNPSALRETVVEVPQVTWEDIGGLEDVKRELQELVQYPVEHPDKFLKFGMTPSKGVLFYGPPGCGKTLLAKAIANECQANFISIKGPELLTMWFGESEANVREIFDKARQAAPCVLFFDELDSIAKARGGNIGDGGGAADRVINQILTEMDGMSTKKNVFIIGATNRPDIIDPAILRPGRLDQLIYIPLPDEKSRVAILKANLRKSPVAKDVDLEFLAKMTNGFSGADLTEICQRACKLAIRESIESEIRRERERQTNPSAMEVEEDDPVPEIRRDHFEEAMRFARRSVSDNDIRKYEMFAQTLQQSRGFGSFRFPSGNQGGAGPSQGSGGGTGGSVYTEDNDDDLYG

UBXD1-PUB (150–264) [2] = molecular target: B2; assay: fluorescence polarisation; fluorescence anisotropy; PUB constructs titrated to 100 nM 5,6-FAM labeled p97-C10 peptide; 50 mM NaKPi pH 6.5, 25 °C; triplicate; one-site quadratic fit
[3] = molecular target: T2, UBXD1-PUB (150–264) Q200A (UniProt Q9BZV1 150-264, Q200A); assay: as above
T2 construct: UBXD1 PUB domain construct, residues 150-264, point mutant; source: E. coli Rosetta2, purified (Ni-NTA, thrombin cleavage of the tag, SEC); not shown: His6, N-terminal, cleaved
T2 sequence (looked up): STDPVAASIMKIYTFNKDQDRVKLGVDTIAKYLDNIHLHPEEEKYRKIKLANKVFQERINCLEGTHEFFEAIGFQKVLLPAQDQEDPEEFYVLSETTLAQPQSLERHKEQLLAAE

[4] = molecular target: T3, UBXD1-PUB (150–264) N201A (UniProt Q9BZV1 150-264, N201A); assay: as above
T3 construct: UBXD1 PUB domain construct, residues 150-264, point mutant; source: E. coli Rosetta2, purified (Ni-NTA, thrombin cleavage of the tag, SEC); not shown: His6, N-terminal, cleaved
T3 sequence (looked up): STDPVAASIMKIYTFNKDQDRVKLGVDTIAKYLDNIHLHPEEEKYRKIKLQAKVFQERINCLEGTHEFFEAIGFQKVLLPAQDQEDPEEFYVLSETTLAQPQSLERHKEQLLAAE

[5] = molecular target: T4, UBXD1-PUB (150–264) N201D (UniProt Q9BZV1 150-264, N201D); assay: as above
T4 construct: UBXD1 PUB domain construct, residues 150-264, point mutant; source: E. coli Rosetta2, purified (Ni-NTA, thrombin cleavage of the tag, SEC); not shown: His6, N-terminal, cleaved
T4 sequence (looked up): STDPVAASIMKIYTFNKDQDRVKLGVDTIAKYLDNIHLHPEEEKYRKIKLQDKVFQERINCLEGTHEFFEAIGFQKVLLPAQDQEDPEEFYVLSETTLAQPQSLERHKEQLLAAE

[6] = molecular target: T5, UBXD1-PUB (150–264) V203A (UniProt Q9BZV1 150-264, V203A); assay: as above
T5 construct: UBXD1 PUB domain construct, residues 150-264, point mutant; source: E. coli Rosetta2, purified (Ni-NTA, thrombin cleavage of the tag, SEC); not shown: His6, N-terminal, cleaved
T5 sequence (looked up): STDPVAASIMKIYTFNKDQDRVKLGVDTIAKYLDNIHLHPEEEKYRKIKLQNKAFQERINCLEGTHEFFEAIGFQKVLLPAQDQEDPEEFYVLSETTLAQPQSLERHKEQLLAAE

[7] = molecular target: T6, UBXD1-PUB (150–264) E206R (UniProt Q9BZV1 150-264, E206R); assay: as above
T6 construct: UBXD1 PUB domain construct, residues 150-264, point mutant; source: E. coli Rosetta2, purified (Ni-NTA, thrombin cleavage of the tag, SEC); not shown: His6, N-terminal, cleaved
T6 sequence (looked up): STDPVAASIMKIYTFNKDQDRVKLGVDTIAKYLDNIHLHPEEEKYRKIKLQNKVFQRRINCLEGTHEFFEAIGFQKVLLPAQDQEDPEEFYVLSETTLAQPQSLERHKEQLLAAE

[8] = molecular target: T7, UBXD1-PUB (150–264) R207E (UniProt Q9BZV1 150-264, R207E); assay: as above
T7 construct: UBXD1 PUB domain construct, residues 150-264, point mutant; source: E. coli Rosetta2, purified (Ni-NTA, thrombin cleavage of the tag, SEC); not shown: His6, N-terminal, cleaved
T7 sequence (looked up): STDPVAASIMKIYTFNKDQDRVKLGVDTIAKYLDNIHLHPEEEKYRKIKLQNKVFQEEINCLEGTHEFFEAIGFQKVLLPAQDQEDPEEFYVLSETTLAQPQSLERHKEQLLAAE

[9] = molecular target: T8, UBXD1-PUB (150–264) Y181A (UniProt Q9BZV1 150-264, Y181A); assay: as above
T8 construct: UBXD1 PUB domain construct, residues 150-264, point mutant; source: E. coli Rosetta2, purified (Ni-NTA, thrombin cleavage of the tag, SEC); not shown: His6, N-terminal, cleaved
T8 sequence (looked up): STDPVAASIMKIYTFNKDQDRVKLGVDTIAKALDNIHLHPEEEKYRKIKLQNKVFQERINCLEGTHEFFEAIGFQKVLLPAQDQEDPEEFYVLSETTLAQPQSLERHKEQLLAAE

[10] = molecular target: T9, UBXD1-PUB (150–264) Y181F (UniProt Q9BZV1 150-264, Y181F); assay: as above
T9 construct: UBXD1 PUB domain construct, residues 150-264, point mutant; source: E. coli Rosetta2, purified (Ni-NTA, thrombin cleavage of the tag, SEC); not shown: His6, N-terminal, cleaved
T9 sequence (looked up): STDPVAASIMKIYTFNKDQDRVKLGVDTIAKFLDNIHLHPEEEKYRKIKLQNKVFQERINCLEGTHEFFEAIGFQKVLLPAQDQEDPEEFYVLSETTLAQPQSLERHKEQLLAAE

[11] = molecular target: T10, UBXD1-PUB (150–264) N184A (UniProt Q9BZV1 150-264, N184A); assay: as above
T10 construct: UBXD1 PUB domain construct, residues 150-264, point mutant; source: E. coli Rosetta2, purified (Ni-NTA, thrombin cleavage of the tag, SEC); not shown: His6, N-terminal, cleaved
T10 sequence (looked up): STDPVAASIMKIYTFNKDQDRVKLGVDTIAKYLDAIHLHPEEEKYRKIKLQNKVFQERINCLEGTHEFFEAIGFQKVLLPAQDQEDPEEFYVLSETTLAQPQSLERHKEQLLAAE

[12] = molecular target: T11, UBXD1-PUB (150–264) N184D (UniProt Q9BZV1 150-264, N184D); assay: as above
T11 construct: UBXD1 PUB domain construct, residues 150-264, point mutant; source: E. coli Rosetta2, purified (Ni-NTA, thrombin cleavage of the tag, SEC); not shown: His6, N-terminal, cleaved
T11 sequence (looked up): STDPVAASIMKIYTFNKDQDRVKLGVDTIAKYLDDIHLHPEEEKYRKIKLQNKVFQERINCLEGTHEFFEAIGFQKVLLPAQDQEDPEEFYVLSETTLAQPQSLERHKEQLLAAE

[13] = molecular target: T12, UBXD1-PUB (150–264) K193E (UniProt Q9BZV1 150-264, K193E); assay: as above
T12 construct: UBXD1 PUB domain construct, residues 150-264, point mutant; source: E. coli Rosetta2, purified (Ni-NTA, thrombin cleavage of the tag, SEC); not shown: His6, N-terminal, cleaved
T12 sequence (looked up): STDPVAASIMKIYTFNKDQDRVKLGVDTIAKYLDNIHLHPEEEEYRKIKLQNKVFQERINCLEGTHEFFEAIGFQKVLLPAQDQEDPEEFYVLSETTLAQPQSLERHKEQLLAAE

[14] = molecular target: T13, UBXD1-PUB (150–264) Y194A (UniProt Q9BZV1 150-264, Y194A); assay: as above
T13 construct: UBXD1 PUB domain construct, residues 150-264, point mutant; source: E. coli Rosetta2, purified (Ni-NTA, thrombin cleavage of the tag, SEC); not shown: His6, N-terminal, cleaved
T13 sequence (looked up): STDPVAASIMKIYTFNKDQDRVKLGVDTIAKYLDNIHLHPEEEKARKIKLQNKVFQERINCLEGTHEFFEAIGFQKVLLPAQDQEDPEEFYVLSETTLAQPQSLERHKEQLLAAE

[15] = molecular target: T14, UBXD1-PUB (150–264) Y194F (UniProt Q9BZV1 150-264, Y194F); assay: as above
T14 construct: UBXD1 PUB domain construct, residues 150-264, point mutant; source: E. coli Rosetta2, purified (Ni-NTA, thrombin cleavage of the tag, SEC); not shown: His6, N-terminal, cleaved
T14 sequence (looked up): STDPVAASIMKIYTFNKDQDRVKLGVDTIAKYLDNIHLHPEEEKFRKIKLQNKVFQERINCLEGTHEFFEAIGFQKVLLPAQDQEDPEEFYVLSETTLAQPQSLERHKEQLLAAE

[16] = molecular target: T15, UBXD1-PUB (150–264) K198E (UniProt Q9BZV1 150-264, K198E); assay: as above
T15 construct: UBXD1 PUB domain construct, residues 150-264, point mutant; source: E. coli Rosetta2, purified (Ni-NTA, thrombin cleavage of the tag, SEC); not shown: His6, N-terminal, cleaved
T15 sequence (looked up): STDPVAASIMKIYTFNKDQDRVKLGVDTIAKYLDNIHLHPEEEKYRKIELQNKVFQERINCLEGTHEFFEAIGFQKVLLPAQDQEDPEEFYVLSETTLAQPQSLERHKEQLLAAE

B1: p97-C10 peptide (unlabeled) (peptide)
peptide: TEDNDDDLYG
notes: also called p97-PIM; p97-C10 PIM peptide; source: synthetic peptide, bought: Caslo ApS (Denmark)
- Kd (UBXD1-PUB (150–264) [1]): 15 ± 5 µM
- dH (UBXD1-PUB (150–264) [1]): -3.25 ± 0.483 kcal/mol
- stoichiometry N (UBXD1-PUB (150–264) [1]): 1.1 ± 0.2

Binder: B2
- Kd (full-length p97): 8.4 µM

B3: 5,6-FAM-labeled p97-C10 peptide (peptide)
peptide: TEDNDDDLYG
modifications: also: 5,6-FAM label, position not given here
notes: source: synthetic peptide, bought: Caslo ApS (Denmark)
- Kd (UBXD1-PUB (150–264) [2]): 13.8 µM
- Kd [3]: 8.3 µM
- Kd [4]: 64.1 µM
- Kd [5]: 280 µM
- Kd [6]: 25.3 µM
- Kd [7]: 39.4 µM
- Kd [8]: 88 µM
- Kd [9]: 111 µM
- Kd [10]: 28.4 µM
- Kd [11]: 28.7 µM
- Kd [12]: 80 µM
- Kd [13]: 17.7 µM
- Kd [14]: 53 µM
- Kd [15]: 141 µM
- Kd [16]: 49.3 µM
